# Measured values as given in the supplement of paper PMC9112550, “Optimization of the antimicrobial peptide Bac7 by deep mutational scanning” (BMC Biology, 2022).
# System: Escherichia coli TOP10
# Test: shrunken log2 fold change of peptide-encoding DNA abundance (4.5 h post-induction vs induction); higher = less antimicrobial activity (less host growth inhibition)
# Settings: time post-induction: 4.5 h; library: site-saturation at positions 5, 18, 19, 20
# 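Further: peptides expressed intracellularly from a pBAD plasmid library in pooled LB shake-flask culture, induced with 0.3% L-arabinose, DNA abundance read by NGS, three biological replicates, DESeq2 with apeglm shrinkage.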
row,Sequence,shrunken log2 fold change
1,RRIRPRPPRLPRPRPRPLYAPRP,0.0267
2,RRIRTRPPRLPRPRPRPARDPRP,0.146
3,RRIRSRPPRLPRPRPRPVHFPRP,0.0527
4,RRIRARPPRLPRPRPRPMYTPRP,-0.0517
5,RRIRERPPRLPRPRPRPYFAPRP,-0.373
6,RRIRCRPPRLPRPRPRPSEAPRP,0.125
7,RRIRGRPPRLPRPRPRPKCNPRP,0.541
8,RRIRYRPPRLPRPRPRPHFFPRP,-0.518
9,RRIRLRPPRLPRPRPRPFIVPRP,-0.238
10,RRIRVRPPRLPRPRPRPRKSPRP,0.337
11,RRIRPRPPRLPRPRPRPFMAPRP,-0.305
12,RRIRNRPPRLPRPRPRPIYKPRP,-0.414
13,RRIRTRPPRLPRPRPRPEDGPRP,0.0244
14,RRIRWRPPRLPRPRPRPPTEPRP,0.597
15,RRIRWRPPRLPRPRPRPMHTPRP,0.643
16,RRIRQRPPRLPRPRPRPSSMPRP,-0.201
17,RRIRYRPPRLPRPRPRPMPIPRP,-0.16
18,RRIRQRPPRLPRPRPRPKNEPRP,-0.136
19,RRIRHRPPRLPRPRPRPKGPPRP,0.216
20,RRIRIRPPRLPRPRPRPCARPRP,0.039
21,RRIRLRPPRLPRPRPRPPCTPRP,0.036
22,RRIRYRPPRLPRPRPRPWFYPRP,-1.48
23,RRIRGRPPRLPRPRPRPYRAPRP,-0.233
24,RRIRDRPPRLPRPRPRPVDQPRP,-0.131
25,RRIRHRPPRLPRPRPRPRPSPRP,0.466

row,Sequence,shrunken log2 fold change
1,RRIRNRPPRLPRPRPRPPSGPRP,-0.0646
2,RRIRKRPPRLPRPRPRPNIAPRP,0.262
3,RRIRCRPPRLPRPRPRPSWQPRP,-0.0872
4,RRIRIRPPRLPRPRPRPSESPRP,-0.159
5,RRIRIRPPRLPRPRPRPYMGPRP,-0.579
6,RRIRMRPPRLPRPRPRPQLNPRP,0.158
7,RRIRQRPPRLPRPRPRPPVCPRP,-0.0828
8,RRIRARPPRLPRPRPRPIDEPRP,0.379
9,RRIRHRPPRLPRPRPRPHTAPRP,-0.337
10,RRIRKRPPRLPRPRPRPHYAPRP,-0.0144
11,RRIRQRPPRLPRPRPRPVGPPRP,0.231
12,RRIRLRPPRLPRPRPRPTCNPRP,-0.4
13,RRIRCRPPRLPRPRPRPFITPRP,-0.639
14,RRIRSRPPRLPRPRPRPLLIPRP,-0.0597
15,RRIRWRPPRLPRPRPRPYMCPRP,0.00232
16,RRIRDRPPRLPRPRPRPMRNPRP,0.416
17,RRIRTRPPRLPRPRPRPDFFPRP,0.175
18,RRIRERPPRLPRPRPRPRHEPRP,-0.304
19,RRIRRRPPRLPRPRPRPDRNPRP,0.00393
20,RRIRGRPPRLPRPRPRPWKWPRP,0.0325
21,RRIRLRPPRLPRPRPRPYCLPRP,-0.303
22,RRIRFRPPRLPRPRPRPQEEPRP,-0.0228
23,RRIRQRPPRLPRPRPRPMPNPRP,-0.215
24,RRIRKRPPRLPRPRPRPEEWPRP,-0.0212
25,RRIRPRPPRLPRPRPRPYTPPRP,-0.447

row,Sequence,shrunken log2 fold change
1,RRIRNRPPRLPRPRPRPPLPPRP,0.363
2,RRIRNRPPRLPRPRPRPTWMPRP,-0.155
3,RRIRYRPPRLPRPRPRPPCGPRP,-0.406
4,RRIRDRPPRLPRPRPRPDAAPRP,1.67
5,RRIRYRPPRLPRPRPRPDWLPRP,-0.0748
6,RRIRRRPPRLPRPRPRPSEEPRP,0.125
7,RRIRSRPPRLPRPRPRPFDPPRP,-0.102
8,RRIRGRPPRLPRPRPRPADTPRP,0.0689
9,RRIRCRPPRLPRPRPRPYNGPRP,-0.216
10,RRIRIRPPRLPRPRPRPMIVPRP,-0.0322
11,RRIRFRPPRLPRPRPRPRTMPRP,0.0577
12,RRIRTRPPRLPRPRPRPQKQPRP,0.166
13,RRIRDRPPRLPRPRPRPHKDPRP,-0.239
14,RRIRMRPPRLPRPRPRPWQGPRP,0.155
15,RRIRNRPPRLPRPRPRPLTLPRP,-0.358
16,RRIRCRPPRLPRPRPRPYIGPRP,-1.24
17,RRIRERPPRLPRPRPRPPLHPRP,-0.0595
18,RRIRDRPPRLPRPRPRPFDHPRP,0.0299
19,RRIRGRPPRLPRPRPRPTEDPRP,1.2
20,RRIRGRPPRLPRPRPRPENHPRP,0.455
21,RRIRHRPPRLPRPRPRPPSIPRP,-0.165
22,RRIRMRPPRLPRPRPRPCNVPRP,0.0415
23,RRIRLRPPRLPRPRPRPIEFPRP,-0.449
24,RRIRNRPPRLPRPRPRPIDAPRP,0.0153
25,RRIRWRPPRLPRPRPRPMPSPRP,-0.116
